From US20050226876A1 (Hoffmann-La Roche, published 2005)

How the values were obtained:
[1] = target: T1, P-selectin on P-selectin-CHO transfectants (human, UniProt P16109 42-830); assay: cell-based ELISA on P-selectin-CHO transfectants, OD405
T1 construct: whole, on cells; not restated for the transfectant; also called P-selectin-CHO cells; P-selectin CHO cells
T1 sequence (looked up): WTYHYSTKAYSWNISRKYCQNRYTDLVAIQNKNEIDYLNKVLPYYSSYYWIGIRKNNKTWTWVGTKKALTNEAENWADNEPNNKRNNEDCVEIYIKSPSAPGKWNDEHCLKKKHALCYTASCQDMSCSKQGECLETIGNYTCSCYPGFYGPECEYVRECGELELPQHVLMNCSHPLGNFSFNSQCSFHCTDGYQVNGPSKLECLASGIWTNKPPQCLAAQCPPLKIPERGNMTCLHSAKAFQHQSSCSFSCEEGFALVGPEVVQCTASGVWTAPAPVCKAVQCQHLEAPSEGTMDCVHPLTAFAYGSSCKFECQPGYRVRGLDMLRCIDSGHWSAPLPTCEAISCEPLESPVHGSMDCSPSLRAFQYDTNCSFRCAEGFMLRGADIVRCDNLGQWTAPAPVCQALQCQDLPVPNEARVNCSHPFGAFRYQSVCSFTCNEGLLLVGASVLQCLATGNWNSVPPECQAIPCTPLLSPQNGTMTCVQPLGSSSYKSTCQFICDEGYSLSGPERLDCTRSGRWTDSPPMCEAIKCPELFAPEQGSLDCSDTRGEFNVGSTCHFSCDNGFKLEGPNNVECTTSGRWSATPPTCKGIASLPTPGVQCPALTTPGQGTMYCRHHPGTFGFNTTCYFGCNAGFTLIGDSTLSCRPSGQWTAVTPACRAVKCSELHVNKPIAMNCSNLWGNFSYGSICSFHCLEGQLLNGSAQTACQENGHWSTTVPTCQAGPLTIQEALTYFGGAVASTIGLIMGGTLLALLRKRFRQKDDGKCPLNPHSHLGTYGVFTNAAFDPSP
Experimental: In the cell-based ELISA P— and E-selectin-CHO-transfectants, after detaching the cells with cell-dissociation solution (Sigma C5914), were seeded into each well of 96 well plates (TC Microwell F96 Nunc 167008) adjusted to 100,000 cells/well and cultivated in respective media overnight at 37° C. (medium for P— CHO-transfectants: DMEM+10% FCS+2 mM Glutamine+Penicillin 100 U/ml/Streptomycin 100 μg/ml; medium for E-selctin transfecttants: HAM F-12+10% FCS+2 mM Glutamine+Penicillin 100 U/ml/Streptomycin 100 μg/ml+0.1% Fungizone+100 μg/ml Neomycin). […] After washing the wells (4 times), the bound antibodies were detected using the same steps as mentioned above for the cell-free ELISA.

[2] = target: T2, rat P-selectin (on thrombin-activated rat platelets) (rat, UniProt P98106 42-768); assay: rosetting assay: adhesion of thrombin-activated rat platelets to HL60 cells, FACS; absence of inhibition, shown as lack of cross-reactivity with rat P-selectin
T2 construct: whole, on cells
T2 sequence (looked up): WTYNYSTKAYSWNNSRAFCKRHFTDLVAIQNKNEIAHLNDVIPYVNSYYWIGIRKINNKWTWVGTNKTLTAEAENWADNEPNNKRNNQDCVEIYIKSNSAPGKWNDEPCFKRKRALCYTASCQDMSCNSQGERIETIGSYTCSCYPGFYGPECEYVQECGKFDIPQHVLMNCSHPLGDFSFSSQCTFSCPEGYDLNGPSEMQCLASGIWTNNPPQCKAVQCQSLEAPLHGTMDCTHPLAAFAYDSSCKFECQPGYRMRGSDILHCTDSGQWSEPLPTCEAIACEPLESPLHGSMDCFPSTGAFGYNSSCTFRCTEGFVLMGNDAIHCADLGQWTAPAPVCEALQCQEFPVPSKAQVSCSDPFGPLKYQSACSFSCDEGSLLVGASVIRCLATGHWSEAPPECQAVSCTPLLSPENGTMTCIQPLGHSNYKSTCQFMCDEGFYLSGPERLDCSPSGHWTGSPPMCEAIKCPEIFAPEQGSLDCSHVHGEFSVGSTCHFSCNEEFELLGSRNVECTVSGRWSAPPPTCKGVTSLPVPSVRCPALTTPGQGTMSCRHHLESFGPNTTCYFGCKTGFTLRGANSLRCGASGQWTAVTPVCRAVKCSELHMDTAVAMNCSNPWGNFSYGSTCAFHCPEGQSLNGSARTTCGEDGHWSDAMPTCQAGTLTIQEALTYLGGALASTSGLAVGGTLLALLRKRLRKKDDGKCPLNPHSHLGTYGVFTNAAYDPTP

[3] = target: T3, Fcγ receptor on human NK cells (FcγRIII) (human, UniProt P08637 17-254); assay: FACS on NK cells from human blood
T3 construct: whole, on cells; also called FcγR presented on NK cells
T3 sequence (P08637 17-254): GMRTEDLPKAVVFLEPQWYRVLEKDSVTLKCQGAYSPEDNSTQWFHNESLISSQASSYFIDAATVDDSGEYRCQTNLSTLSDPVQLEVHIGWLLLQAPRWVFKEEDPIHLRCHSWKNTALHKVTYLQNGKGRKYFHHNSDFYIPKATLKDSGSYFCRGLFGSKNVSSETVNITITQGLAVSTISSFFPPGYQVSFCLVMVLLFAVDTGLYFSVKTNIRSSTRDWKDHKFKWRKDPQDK

[4] = target: T4, human complement factor C1q (human, UniProt P02745 23-245; P02746 28-253; P02747 29-245); assay: C1q ELISA, antibody coated 0.16-20 µg/ml
T4 construct: also called Clq
T4 sequence (P02745 23-245 limits assumed, chain 1 of 3): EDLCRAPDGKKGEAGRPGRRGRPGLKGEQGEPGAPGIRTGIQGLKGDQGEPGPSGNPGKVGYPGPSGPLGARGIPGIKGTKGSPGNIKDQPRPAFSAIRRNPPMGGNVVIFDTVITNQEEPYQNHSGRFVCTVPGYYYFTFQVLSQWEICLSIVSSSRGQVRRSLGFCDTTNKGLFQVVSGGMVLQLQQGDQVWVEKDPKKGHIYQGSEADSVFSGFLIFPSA
T4 sequence (P02746 28-253 limits assumed, chain 2 of 3): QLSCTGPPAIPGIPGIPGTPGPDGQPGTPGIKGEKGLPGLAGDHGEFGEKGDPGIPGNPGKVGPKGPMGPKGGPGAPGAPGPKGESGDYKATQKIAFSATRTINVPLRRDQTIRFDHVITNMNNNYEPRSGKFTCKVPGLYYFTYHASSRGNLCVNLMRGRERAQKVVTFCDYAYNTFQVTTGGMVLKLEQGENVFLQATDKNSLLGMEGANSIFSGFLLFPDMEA
T4 sequence (P02747 29-245 limits assumed, chain 3 of 3): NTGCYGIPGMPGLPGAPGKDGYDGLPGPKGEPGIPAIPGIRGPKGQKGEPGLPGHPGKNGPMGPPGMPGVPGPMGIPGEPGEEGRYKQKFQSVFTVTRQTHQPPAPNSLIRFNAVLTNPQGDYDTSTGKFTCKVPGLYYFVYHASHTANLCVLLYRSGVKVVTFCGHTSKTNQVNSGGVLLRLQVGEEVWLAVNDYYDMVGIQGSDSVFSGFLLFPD
Experimental: (§1) In principle, the ELISA plate is coated with concentration ranges of the antibody, to which human C1q or human pooled serum, as a source of C3, is added. C1q or […] binding is detected by an antibody directed against human C1q or […] followed by a peroxidase-labeled conjugate.

[5] = target: T4, human complement factor C1q; assay: C1q ELISA, antibody coated; background OD405 0.079
Experimental: as §1

[6] = target: T3, Fcγ receptor on human NK cells (FcγRIII); assay: FACS on NK cells from human blood, antibody 10 µg/ml; no antibody: 0.03

B1: HuMab 002 Fc variant IgG1v1 (PVA-236; GLPSS331: E233P; L234V; L235A; delta G236; A327G; A330S; P331S) (antibody)
heavy: EVQLVESGGGLVRPGGSLRLSCAASGFTFSNYDMHWVRQATGKGLEWVSAITAAGDIYYPGSVKGRFTISRENAKNSLYLQMNSLRAGDTAVYYCARGRYSGSGSYYNDWFDPWGQGTLVTVSSASTKGPSVFPLAPSSKSTSGGTAALGCLVKDYFPEPVTVSWNSGALTSGVHTFPAVLQSSGLYSLSSVVTVPSSSLGTQTYICNVNHKPSNTKVDKKVEPKSCDKTHTCPPCPAPPVAGPSVFLFPPKPKDTLMISRTPEVTCVVVDVSHEDPEVKFNWYVDGVEVHNAKTKPREEQYNSTYRVVSVLTVLHQDWLNGKEYKCKVSNKGLPSSIEKTISKAKGQPREPQVYTLPPSRDELTKNQVSLTCLVKGFYPSDIAVEWESNGQPENNYKTTPPVLDSDGSFFLYSKLTVDKSRWQQGNVFSCSVMHEALHNHYTQKSLSLSPGK
light: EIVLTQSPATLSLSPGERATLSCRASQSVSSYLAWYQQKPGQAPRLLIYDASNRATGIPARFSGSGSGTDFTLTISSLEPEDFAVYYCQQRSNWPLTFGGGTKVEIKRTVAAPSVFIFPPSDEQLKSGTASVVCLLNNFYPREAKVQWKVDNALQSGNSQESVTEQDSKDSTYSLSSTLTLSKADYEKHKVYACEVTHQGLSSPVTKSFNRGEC
notes: copies: 2 + 2
B1 was tested, and the “EC50 (read off the curve)” value [1] was ~0.03 µg/mL, the binding result [2] was “no binding (tested: 100 µg/ml)” and the binding result [3] was “no binding (tested: 10 µg/ml)”. The binding result [4] was “no binding”, the “Bmax (OD405 at 10 µg/ml)” value [5] was 0.0119 OD405 and the “% NK cells binding antibody” value [6] was 0.12%.
